Data from patent US20160137965A1.

Columns and labels:
α6β1 integrin [1] = biological target: α6β1 integrin (UniProt P23229); assay: solid-phase binding assay: plate coated with 0.5 µg/cm^2 511E8, not dried, 10 nM α6β1 integrin
α6β1 integrin [2] = biological target: α6β1 integrin (UniProt P23229); assay: solid-phase binding assay: plate coated with 1.0 µg/cm^2 511E8, not dried, 10 nM α6β1 integrin
α6β1 integrin [3] = biological target: α6β1 integrin (UniProt P23229); assay: solid-phase binding assay: plate coated with 0.4 µg/cm^2 511E8, not dried, 10 nM α6β1 integrin
α6β1 integrin [4] = biological target: α6β1 integrin (UniProt P23229); assay: solid-phase binding assay: plate coated with 0.75 µg/cm^2 511E8, dried 1 h at room temperature, 10 nM α6β1 integrin, absorbance at 490 nm
α6β1 integrin [5] = biological target: α6β1 integrin (UniProt P23229); assay: solid-phase binding assay: plate coated with 0.25 µg/cm^2 511E8 with 167 µg/mL gelatin, dried 1 h, 10 nM α6β1 integrin, absorbance at 490 nm
α6β1 integrin [6] = biological target: α6β1 integrin (UniProt P23229); assay: solid-phase binding assay: plate coated with 0.25 µg/cm^2 511E8 with 500 µg/mL gelatin, dried 1 h, 10 nM α6β1 integrin, absorbance at 490 nm
α6β1 integrin [7] = biological target: α6β1 integrin (UniProt P23229); assay: solid-phase binding assay: plate coated with 0.4 µg/cm^2 511E8 with 0.8 µg/cm^2 211E8, dried 24 h, 10 nM α6β1 integrin, absorbance at 490 nm
α6β1 integrin [8] = biological target: α6β1 integrin (UniProt P23229); assay: solid-phase binding assay: plate coated with 0.4 µg/cm^2 511E8 with 1.6 µg/cm^2 211E8, dried 24 h, 10 nM α6β1 integrin, absorbance at 490 nm
α6β1 integrin [9] = biological target: α6β1 integrin (UniProt P23229); assay: solid-phase binding assay: plate coated with 0.5 µg/cm^2 511E8 alone, dried 24 h, stored 1 week at 4°C, 10 nM α6β1 integrin, absorbance at 490 nm
α6β1 integrin [10] = biological target: α6β1 integrin (UniProt P23229); assay: solid-phase binding assay: plate coated with 0.5 µg/cm^2 511E8 with 0.1% BSA, dried 24 h, stored 1 week at 4°C, 10 nM α6β1 integrin, absorbance at 490 nm
α6β1 integrin [11] = biological target: α6β1 integrin (UniProt P23229); assay: solid-phase binding assay: plate coated with 0.5 µg/cm^2 511E8 with 0.05% gelatin, dried 24 h, stored 1 week at 4°C, 10 nM α6β1 integrin, absorbance at 490 nm
α6β1 integrin [12] = biological target: α6β1 integrin (UniProt P23229); assay: solid-phase binding assay: plate coated with 0.5 µg/cm^2 511E8 with 20% glucose (or some other candidates), dried 24 h, stored 1 week at 4°C, 10 nM α6β1 integrin, absorbance at 490 nm
α6β1 integrin [13] = biological target: α6β1 integrin (UniProt P23229); assay: solid-phase binding assay: plate coated with 0.5 µg/cm^2 521E8, not dried, 10 nM α6β1 integrin
α6β1 integrin [14] = biological target: α6β1 integrin (UniProt P23229); assay: solid-phase binding assay: plate coated with 1.0 µg/cm^2 521E8, not dried, 10 nM α6β1 integrin

Sequence of UniProt P23229 (P23229 other isoform, or with tags, fused parts or gaps limits assumed, chain 1 of 2): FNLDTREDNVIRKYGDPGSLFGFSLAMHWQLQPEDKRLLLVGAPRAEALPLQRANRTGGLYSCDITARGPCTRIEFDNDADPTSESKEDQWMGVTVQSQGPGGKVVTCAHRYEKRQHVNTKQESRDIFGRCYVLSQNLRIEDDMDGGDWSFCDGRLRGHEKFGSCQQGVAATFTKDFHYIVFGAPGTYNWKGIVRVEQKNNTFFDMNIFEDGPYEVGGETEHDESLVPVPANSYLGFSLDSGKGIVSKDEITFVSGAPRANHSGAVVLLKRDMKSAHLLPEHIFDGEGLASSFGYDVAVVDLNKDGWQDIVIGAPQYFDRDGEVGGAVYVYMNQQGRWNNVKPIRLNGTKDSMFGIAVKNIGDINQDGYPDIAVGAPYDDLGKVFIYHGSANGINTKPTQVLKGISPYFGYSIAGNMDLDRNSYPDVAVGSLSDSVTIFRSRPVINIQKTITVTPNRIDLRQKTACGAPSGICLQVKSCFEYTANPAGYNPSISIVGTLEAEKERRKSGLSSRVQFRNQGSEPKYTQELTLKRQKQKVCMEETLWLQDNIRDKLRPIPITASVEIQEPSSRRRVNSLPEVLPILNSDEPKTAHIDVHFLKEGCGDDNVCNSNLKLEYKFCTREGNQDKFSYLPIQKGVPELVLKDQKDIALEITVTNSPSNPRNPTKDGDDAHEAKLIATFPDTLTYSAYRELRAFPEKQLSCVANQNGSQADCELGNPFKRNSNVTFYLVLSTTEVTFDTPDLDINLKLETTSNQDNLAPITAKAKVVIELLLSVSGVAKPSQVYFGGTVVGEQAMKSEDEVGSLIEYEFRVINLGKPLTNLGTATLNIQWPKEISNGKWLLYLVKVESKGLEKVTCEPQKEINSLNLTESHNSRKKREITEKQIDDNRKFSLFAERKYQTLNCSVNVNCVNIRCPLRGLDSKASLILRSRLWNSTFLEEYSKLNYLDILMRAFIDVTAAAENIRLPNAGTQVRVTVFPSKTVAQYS
Sequence of UniProt P23229 (P05556 21-728 limits assumed, chain 2 of 2, further chain): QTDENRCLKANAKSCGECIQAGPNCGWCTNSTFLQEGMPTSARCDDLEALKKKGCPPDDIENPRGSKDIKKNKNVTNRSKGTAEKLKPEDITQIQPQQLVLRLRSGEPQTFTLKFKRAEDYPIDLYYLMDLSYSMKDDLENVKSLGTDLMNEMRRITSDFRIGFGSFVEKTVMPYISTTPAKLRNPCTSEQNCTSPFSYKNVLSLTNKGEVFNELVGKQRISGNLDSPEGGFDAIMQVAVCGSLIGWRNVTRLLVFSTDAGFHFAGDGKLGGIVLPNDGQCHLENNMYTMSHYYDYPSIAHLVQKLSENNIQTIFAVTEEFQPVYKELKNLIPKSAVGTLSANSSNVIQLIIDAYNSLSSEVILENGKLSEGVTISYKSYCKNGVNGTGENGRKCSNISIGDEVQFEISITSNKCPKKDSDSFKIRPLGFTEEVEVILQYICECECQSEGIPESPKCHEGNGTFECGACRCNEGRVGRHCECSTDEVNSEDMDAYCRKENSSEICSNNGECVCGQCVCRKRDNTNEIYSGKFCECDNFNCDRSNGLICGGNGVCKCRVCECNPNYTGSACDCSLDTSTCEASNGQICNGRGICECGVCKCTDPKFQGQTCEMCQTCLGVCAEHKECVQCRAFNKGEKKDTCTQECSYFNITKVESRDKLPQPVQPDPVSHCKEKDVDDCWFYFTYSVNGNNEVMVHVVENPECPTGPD

Substance | absorbance at 490 nm (amount of bound α6β1 integrin) (absorbance at 490 nm) (α6β1 integrin [1]) | absorbance at 490 nm (amount of bound α6β1 integrin) (absorbance at 490 nm) (α6β1 integrin [2]) | absorbance at 490 nm (amount of bound α6β1 integrin) (absorbance at 490 nm) (α6β1 integrin [3]) | decrease of the amount of bound integrin after drying, against the undried control (α6β1 integrin [4]) [%] | integrin binding activity after drying (percent remaining) (α6β1 integrin [5]) [%] | integrin binding activity after drying (percent remaining) (α6β1 integrin [6]) [%] | integrin binding activity relative to undried 511E8 control (α6β1 integrin [7]) [%] | integrin binding activity relative to undried 511E8 control (α6β1 integrin [8]) [%] | integrin binding activity relative to undried 511E8 control (100%) (α6β1 integrin [9]) [%] | integrin binding activity relative to undried 511E8 control (100%) (α6β1 integrin [10]) [%] | integrin binding activity relative to undried 511E8 control (100%) (α6β1 integrin [11]) [%] | integrin binding activity relative to undried 511E8 control (100%) (α6β1 integrin [12]) [%] | absorbance at 490 nm (amount of bound α6β1 integrin) (absorbance at 490 nm) (α6β1 integrin [13]) | absorbance at 490 nm (amount of bound α6β1 integrin) (absorbance at 490 nm) (α6β1 integrin [14])
Human recombinant laminin 511E8 (from UniProt O15230 2534-3327; P07942 1561-1786; P11047 1362-1608) (ligand) | 2.62 | 2.96 | 1.07 | 30 | 40 | 70 | 30 | 80 | < 10 | 90 | 90 | 40 | – | –
Human recombinant laminin 521E8 (from UniProt O15230 2534-3327; P55268 1573-1798; P11047 1362-1608) (ligand) | – | – | – | – | – | – | – | – | – | – | – | – | 2.75 | 2.83
